Publication PMC11161758 (Proceedings of the National Academy of Sciences of the …, 2024)

Target: T1, N-terminal FLAG tag-p22phox (human, UniProt P13498 1-195)
T1 sequence: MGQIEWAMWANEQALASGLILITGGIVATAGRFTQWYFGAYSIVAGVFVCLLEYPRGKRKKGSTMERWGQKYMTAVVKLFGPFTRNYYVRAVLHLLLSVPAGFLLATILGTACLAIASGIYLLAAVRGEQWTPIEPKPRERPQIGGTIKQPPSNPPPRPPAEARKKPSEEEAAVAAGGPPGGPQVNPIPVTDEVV
Experiment: cryo-EM structure

stoichiometry N: 1
B1: NOX2 (gp91phox), catalytic subunit of phagocyte NADPH oxidase (enzyme)
chain: MGNWAVNEGLSIFVILVWLGLNVFLFVWYYRVYDIPPKFFYTRKLLGSALALARAPAACLNFNCMLILLPVCRNLLSFLRGSSACCSTRVRRQLDRNLTFHKMVAWMIALHSAIHTIAHLFNVEWCVNARVNNSDPYSVALSELGDRQNESYLNFARKRIKNPEGGLYLAVTLLAGITGVVITLCLILIITSSTKTIRRSYFEVFWYTHHLFVIFFIGLAIHGAERIVRGQTAESLAVHNITVCEQKISEWGKIKECPIPQFAGNPPMTWKWIVGPMFLYLCERLVRFWRSQQKVVITKVVTHPFKTIELQMKKKGFKMEVGQYIFVKCPKVSKLEWHPFTLTSAPEEDFFSIHIRIVGDWTEGLFNACGCDKQEFQDAWKLPKIAVDGPFGTASEDVFSYEVVMLVGAGIGVTPFASILKSVWYKYCNNATNLKLKKIYFYWLCRDTHAFEWFADLLQLLESQMQERNNAGFLSYNIYLTGWDESQANHFAVHHDEEKDVITGLKQKTLYGRPNWDNEFKTIASQHPNTRIGVFLCGPEALAETLSKQSISNSESGPRGVHFIFNKENF
modifications: N-glycan moieties at asparagines 132, 149 and 240; two hemes bound
